Reference: patent US20070178575A1, “Identification Of A Nitrilase From B. Japonicum By Rational Genome Mining And Methods Of Use” (priority 2005, published 2007)

Columns and labels:
N#CC(O)c1ccccc1 = tested on: T1, N#CC(O)c1ccccc1; assay: Measurement of kinetic parameters (Bertholet ammonia assay, purified enzyme); type: biochemical, Bradyrhizobium japonicum USDA110; conditions: other: purified nitrilase, potassium phosphate buffer pH 7.2, 30° C.
T1 construct: His tag (C); made in house; host or cells: E. coli Rosetta(DE3)pLysS (plasmid pLH10.3, pET22b)
Method: (§1) The standard assays were carried out by mixing the substrate nitrile and purified nitrilase enzyme in potassium phosphate buffer (100 mM, pH 7.2). The reaction mixture was incubated at 30° C. Samples (100 μL) of the reaction mixture were withdrawn at several time intervals and quenched with 10 μl of 1 M HCl. The amount of ammonia produced in the reaction was measured using Bertholet assay as follows: A 100 μL aliquot of each of the following assay reagents was added subsequently: 0.02 M NaOCl, 0.33 M sodium phenoxide and 0.01% sodium nitroprusside solution. The mixture was then heated at 95° C. for 2 min, cooled rapidly in ice-water bath, and 200 μl of the mixture was then placed in a 96-well plate to measure the absorbance at 640 nm using SpectraMax M2 microplate reader (Molecular Devices). The amount of ammonia released during the hydrolysis was calculated by comparison with the standard curve obtained with standard ammonium chloride solution, and the activity was defined as the number of μmol of ammonia produced in 1 minute by 1 mg of enzyme (μmol·min^−1·mg^−1). […], activity assays were performed with different substrate concentrations, and Vmax and Km were calculated by best fitting the curve to experimental data according to Michaelis equation.

N#CCc1ccccc1 = tested on: T2, N#CCc1ccccc1; assay: as above; type: biochemical, Bradyrhizobium japonicum USDA110; conditions: other: purified nitrilase, potassium phosphate buffer pH 7.2, 30° C.
T2 construct: His tag (C); made in house; host or cells: E. coli Rosetta(DE3)pLysS (plasmid pLH10.3, pET22b)
Method: as §1

With “nitrilase bll6402 (Bradyrhizobium diazoefficiens USDA 110)” the Km (N#CC(O)c1ccccc1) was 0.26 mM, the Vmax (N#CC(O)c1ccccc1) was 44.7 U/mg and the kcat (N#CC(O)c1ccccc1) was 27.0 s⁻¹. For the same substance, the kcat/Km (N#CC(O)c1ccccc1) was 104000 M⁻¹ s⁻¹, the Km (N#CCc1ccccc1) was 0.1 mM and the Vmax (N#CCc1ccccc1) was 2.2 U/mg. The kcat (N#CCc1ccccc1) was 1.36 s⁻¹ and the kcat/Km (N#CCc1ccccc1) was 13600 s^−1M^−1.
